Our source for the protein production values is a protein production outcome set (Wang et al. 2014).

This series can be described thus: label from the status in PepcDB records.
Turning to “MFQISFMSKQLQDLIDRELMNASSLVKKGKYEKALEKLNKAERLAEKAKNSELFCRVLLHKGEILDSMEKSREALLQYEKALEISLRFFMSDPQDSSSQRCLYNSIDLMENILNKIDDVSVAEKSYERTNKYFGKVIGTYEKLIAKYPENHYYLINYIITVKNLRGYLLNVGKSEKQIQLINSTLETFKEILNIQPENPEIFEKLDEFVKDLGEEFLDDELFENAKKIYEHLQGIYRGLLENYPDNELVLHYLIVSYGYFGNLYSRQRYLDRIEETYRPALSIVEDNLRKNPENTAFLENLGKIHEKIGVTYSEAKDQEKANSYYEKALANFVNLKGKASEDPDYQAELGKIFANLGERFETINRIENAAKSYLHKIEIYDSLFEEDPEDEDVKMDNIDTLMHIGNLYAEAGYTEPAKKYYEKAIEGYERLLSENPESTDFEIGISDILTALGDMYAKVGEEETEPEDAELETAREYYEKALKLNEKEFERYPDDLTCQDELIRTLGKLGDSFAVQDRYEDVIPFYRRIVEIKEQVVRDDPRRWLAVNSLTNFLYQLGSYYGKIEEVELERKQYSKAAELYSRALHDKNLQHQIKEVLAVEVQSHGTALLKSGKYNAAKEALDLALEFFENLYEEDPEDEENYPFICEALFQNGNLQRALENFEEAAKSFDSLLPIVEKLLESNPESPEARENAGVTYTNVGEVYSLNGEYEKSKQAFERALTINAVLLEEEPDNSLYKINQAQTFEKYAKLLSKLGRSEEAEDYSTKSEEIYRKLAEEDSDEGDINE”, the protein production entry is “failed”.

With “MVNIFWFSLAVIIYSYFIYPFILLIFSAVKQAISDTRYLWKKSQRRVVDKDNLPPVSIIIAAYNEESCIKARVENLLSLDYPQDKLTILIGSDGSQDKTAEILTSFDAVNLKVHIFEKNRGKMSVLNDLVEQVNSDYIVFSDANTHFNKNTIEYLVRHFNHDNIGAVCGELHLVDVDSGDNKDNIYWRYEQVLKFHEARLNALQGANGAIYAIRKELFIPLPANTIVDDFQIAMNVAKQGFRLIYDPEAIAIEEIAPNLQAEEGRRVRIGLGNYQALFTMAWALNPLLGWRFIAYISHKVCRWFVPHLMLITLISNLLLISNPLYQLLFIGQILFYSVAFYGIKKQQKRQKVSSIIGIIAFFVSMNIALMRGFIRYFSSNVQGTWERTTR”, the protein production result was “failed”.

As to “MKMDTGALTFQQKIYWLVKQIPLGRVATYGQIAALCGWPRHGRYVGYALYRVAPNSDIPWHRVVNAQGKISYAPQRRGTDELQRWRLAAEGIIFTAGLEHHHHHH”, the protein production result is listed as “failed”.

On to “MLDLNPNQSYIIRINKKGGINMHWLADLLAAIGVVLNGIPQGIMAMSLGFAVFPTAFSFGLVGLINGVASSVAPVSFQAESLALVGHLGHDLRERSSIIFLGASLMFVIGLTGTLPLIVHSLGNQLMAAMMAGVGLMLAKIALQMAHEQPQFGWLSIGLAGVTYLISKDLVWTIAVSVIGTSCYAATTHYRVALPEHVTTRKLQFVRPQFSFKILRGALSLACLNIGANLSYGLITGQMTGQHPNPVNLNLLTSSQALADLGTSLLGGAPVETIISATASAPEPVIAGILMMLIMMLILLLGWLPKLGKVVPSTAIAGFLFILGTIVIFPENATTALHGSLSTVAGVTLVVTALVDPFAGLMTGALLKFGLPLIGLGL”, for which the protein production entry was “failed”.

For “MKWKKSLAGLSSYKPGKREEEVMAELGLTKITKLSSNENPLGTSKKVAAIQANSSVETEIYPDGWASSLRKEVADFYQLEEEELIFTAGVDELIELLTRVLLDTTTNTVMATPTFVQYRQNALIEGAEVREIPLLQDGEHDLEGMLNAIDEKTTIVWICNPNNPTGNYIELADIQAFLDRVPSDVLVVLDEAYIEYVTPQPEKHEKLVRTYKNLIITRTFSKIYGLASARVGYGIADKEIIRQLNIVRPPFNTTSIGQKLAIEAIKDQAFIGECRTSNANGIKQYEAFAKRFEKVKLYPANGNFVLIDLGIEAGTIFSYLEKNGYITRSGAALGFPTAVRITIGKEEDNSAVIALLEKLL”, the protein production result is “not failed”.

Consider “MALASSEALVNLVEYARWNQCGVSGGPGTKEFSAEGTEAAKGGRRKAAGGRAGRGGAGRERGGTRDPAMGPGARLALLALLALGGDPAAATGREDTFSALTSVARALAPERRLLGTLRRYLRGEEARLRDLTRFYDKVLSLHEDLKIPVVNPLLAFTLIKRLQSDWRNVVHSLEATENIRALKDGYEKVEQDLPAFEDLEGAARALMRLQDVYMLNVKGLARGVFQRVTGSSITDLYSPRQLFSLTADDCFQVGKVAYDTGDYYHAIPWLEEAVSLFRRAHGEWKTEDEASLEDALDYLAFACFQVGNVSCALSLSREFLVYSPDNKRMARNVLKYERLLAENGHQMAAETAIQRPNVPHLQTRDTYEGLCQTLGSQPTHYQIPSLYCSYETNSSPYLLLQPARKEVVHLRPLIALYHDFVSDEEAQKIRELAEPWLQRSVVASGEKQLQVEYRISKSAWLKDTVDPMLVTLDHRIAALTGLDIQPPYAEYLQVVNYGIGGHYEPHFDHATSPSSPLYRMKSGNRVATFMIYLSSVEAGGATAFIYGNFSVPVVKLSSVEAGGATAFIYGNFSVPVVKLHVFTVPMDGGPWCTCGHWVANKWIHEYGQEFRRPCSTNPED”, for which the protein production entry is on record as “failed”.

Consider “MKTIEIFDPAMCCPTGLCGTNINPELMRIAVVIETLKRQGVVVTRHNLRDEPQVYVSNKTVNQYLQKNGAEALPITLVDGEIAVSKDYPTTKQMSEWTGINLD”, for which the protein production entry is “not failed”.

For “MISMPKEKVVIIIPTYNEEDNISNTIDLILKETYSLADYQVDILVFDSHSTDSTAHIVRELTYTSQRIHFAQEPQKTGLGSAYLQAMRIAIDELNADVVFEFDADGSHQPCYIAPMLELLKQHDVVVGSRYISGGRIPSNWAFHRKLLSVGGNWVARMLLTGKYKDLTSGLRAIRTNLLKKLLPSNFLSNNYAYKLELYWLLHKAKARIVEFPIQFIDREKGKSKLPKNSMIDTLRVLFTLRFRELRQYLTMCCVGSIGALIQFSLYNWLRSSNHSALVSSQVAISAAIISNFIFHHSITFKQKTDFRITKTTFSRFTQFIIYSTFMVYFQSLWVHIFVHSFGQGVLKENIIVASGLGIGSIINYLFYSNIIWSSKGTHSLNSNSSKETQI”, the protein production result is on record as “failed”.

For “MTPHKQLILGGEQAFVGNVASGDFKNRPCPSDLGDIPGTVNPPEGRNPSQDFGQRWDWIQLNAEHMKFSSVSEEKPGLLAPPAQPLTKMFQGAWLCWASLLLLVRVTQPCPVGCDCFDRKIFCSDEQLAAIPLDIPSHVTDIVFVETSFTTVGTRAFSGSPNLTKVVFLNTRVHHLEPDAFGGLPRLEDLEVTGSPFSNLSANIFSNLSSLGKLTLDFNRLAALPEDLFHHMDTLESLQLQGNQLQTLPGRLFQSLRYLRTLNLAQNLLTQLPKGMFQSLSSLQILKLSDNMFARLPEGVLSNLGSLQELFLDSNAITELSPHLFSHLLSLEKLWLQHNAISLLPVSAFSSLRNLTFLNLKDNALRTLPAGLFTHNPGLLHLSLSYNQLETVPEGSFANLRKLASLTLSHNAITHLPENVFRNLEQLVKLSLDSNNLTVLHPTLFHNLSKLQLLDLSRNQLTMLPGGIFDTNYDLFNLALLGNPWQCDCRLSYLTSWLRLYNDRIFNTHTFCAGPAYLKGQLVPNLKQEQLVCPGNPGQLGLDDREPAGSWDLAVEGRAAHRQCIYGNPEGTVLLACEEAQCRWLNIQLSSREGSDVTAMAYNSSQEWELRSTCGSVRVTVSIEAQAAGP”, the protein production result is “failed”.

With “MDPNQPVKFTEFMPDSGGIRTKFIVKGSNFGEDKSQVKVYFKDEVGNEREALVLGVKPDVIYAQVPKQAGGESHVRVEIAGKEAELSNAEKTFKYIVTSSVSTVVGKAKEGGNKDGTLGETTFNTPRYVAVDNDDNVFIFDSDGRTRLSSIEQNKTITLLDGMVIDQPLFIDKEKKQLFGPCDNANFGCFLFDANVSWVADKMGQLLANGGWMHSVVLDPVDSTFVIYRQNTGQLWTQPFDKNRRTLNPNKAKRIGTLYNTGSNGLCAYNPVDKYVYCVLHSKSAVYRFKLTRDADGWPALDGDIDEYIPGAGAGFRDGDVQEAQFKEPRGIAIDKEGNLYIADVGNNRIRKVDTKLNVVTTIAGSGAAGYKDGDPLEAQFNQPWGVYLDKNEFLYIADQNNHCIRKLAIELEHHHHHH”, the protein production result is listed as “failed”.

“MMIDPELRPAFLPAGKLRAAINLGNPILAGTDAAGQAVGVSVDLAREFARRLNAGIELRVFDTAGQSVDAVTREEADIGFFAIDPARGAGIAFTGPYVLIEGAYLVRDDSPLQANEDVDRAGKRVTVGKGSAYDLHLTRALQHAEIVRAASSQAVVDTFLARRLDVAAGVKQQLQADARRVGGVRLLPGRFMVIRQAMGLPKARGDAAAACLDAFVESMKGNGFVAQALARHGLEHHHHHH”: the protein production entry is reported as “failed”.

Regarding “MSMVVNSSDQAITMESLGISGHCDDVFCNELTATVIGEMTKRPTRLDIPIGVDGFVAPISSSADVTVTSREECREVEREGYEDTVNNEEISKPKSMKLLAHAGDDESIKRQENEDDDGRTTVDDDDGRGRINVSRLKALLMITTRE”, the protein production result is on record as “failed”.

As for “IQLIVNGQSQLVPSPDSGTDSGTTNDARLNIRQLLEHMGLQGKRIAVERNGEIVPRSQFDQPMLASGDKLEIVVAVGGG”, the protein production result was “failed”.

“MNHNYVEVKYPAIFRDEGTYWDVRFPDVPAAQTFGASVQVAADNAANALAIALFEQSLPPASDPQYWRLASTEFVVWITMADVQFGPGADTPEPMN”: the protein production result was “not failed”.

In the case of “SALTAALSVCPLPSSSFFFAGFLPHKKGRKSRLEFLASIDSTIVLYESPHRIGRLMEEVKEHFPDAQVFAAREITKMHEEYVTGTPDELANHFTGQKQRGEFVVVVHPPDKH”, the protein production entry is “failed”.

Take “MKGKEIMEIKRILVSRTDKIGDLVLSIPSFFMLKKMYPNAELVVIVRKYNVDIVKNLPYIDRIVIIDEYSKAELLEKIAYFKADVFIALYNDSYIASLARASKAKIKIGPISKLSSFFTYNKGVLQKRSLSLKNEGQYNLDLVTKLDRKRFAILYELNTKLILTDENKKVADVYFKENSIEGKTLVVNPFIGGSAKNITDEQYISILKKIKEKMPDLNIIITSYTTDEERTEKLCKDIGKDKIFAFSNGASILNTASIIDRADVYFGASTGPTHIAGALGKKIVAIYPHKKTQSPTRWGVLGNSNVRYIIPDENNPNEDYKNPYFDNFTKDMEDKVVKAILEALK”: the protein production entry is on record as “failed”.

For “MQTDEKLHVLLADDDPIMLARLSRQLEADGHHVASRRDGETALAYALEHQPEMVITDWHMKPMNGLELCRALRESALGGNVYIVMLTASESEDALVEAFGAGIDDYVIKPPSVRVLKARIRAGQRIITLHKKLARERKEIERYSSELAAANRRLELMAHTLEHHHHHH”, the protein production result was “failed”.

Take “METRTLEDWRALLEAEKTLDSGVYNKHDLLIVRGQGARVWDAEGNEYIDCVGGYGVANLGHGNPEVVEAVKRQAETLMAMPQTLPTPMRGEFYRTLTAILPPELNRVFPVNSGTEANEAALKFARAHTGRKKFVAAMRGFSGRTMGSLSVTWEPKYREPFLPLVEPVEFIPYNDVEALKRAVDEETAAVILEPVQGEGGVRPATPEFLRAAREITQEKGALLILDEIQTGMGRTGKRFAFEHFGIVPDILTLAKALGGGVPLGAAVMREEVARSMPKGGHGTTFGGNPLAMAAGVAAIRYLERTRLWERAAELGPWFMEKLRAIPSPKIREVRGMGLMVGLELKEKAAPYIARLEKEHRVLALQAGPTVIRFLPPLVIEKEDLERVVEAVRAVLA”: the protein production result is “not failed”.

“MKIGDKVRFLSEVGGGIVTGFKGKDFVLVEDADGFDIPMPIRECVVIEADDYNIKRKPAATAPKQEEPAKPAKPEMPVIQRQPEVRGGDTLNVFLAYVPEDAKAMMTTPFEAYLVNDSNYYLYYTYLSAEGKAWNNRSHGLVEPNTKLLLEEFTKDVLNEMERVAVQLIAFKDGKPAAIKPAVSVELRIDTVKFYKLHTFSASDFFEEPALIYDIVKDDVPAKQVYVSAEEIQSALLQKKFVDKPKSQPIMKPNHGQSGKNGIIEVDLHIDSLLDDTHGMSNSEILNYQLDKFREVIEANKEKREQKVVFIHGKGDGVLRKAIIDELKRKHSNYRYQDASFQEYGFGATMVTIK”: the protein production result is “not failed”.
